Measured values published in the supplement of paper PMC12042874.
± gives the uncertainty stated by the source.

Test: amyloid nucleation score (Sup35N fusion, yeast selection) (log enrichment); library NNK1; higher = more nucleation; inactive = no reads after selection
Procedure, shortened: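 The nucleation score is a DiMSum log enrichment of output over input reads, centred on the mode score of non-aggregating sequences. Sequences under 100 input reads were excluded, and reads came from Illumina sequencing of plasmid inserts. Psi-negative yeast expressing Sup35N fused to peptides of 20 random codons were induced with 100 μM copper sulfate for 24 hours and grown 7 days at 30°C on medium lacking adenine and uracil. Random libraries had three technical output replicates.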

Substance	amyloid nucleation score
VDYFFMGAGFEL	4.53 ± 0.077
TTASVSSEI	-0.441 ± 1.2
TLDLTHNLCLG	0.491 ± 0.37
NLLGDSLWEPLNLVDGSTLW	0.235 ± 0.3
RILGYRIMTNWGVGSYKPGR	-0.41 ± 0.46
GKSWLSMKNQISINRRSMIP	-0.449 ± 0.5
SIVVLGASTWR	0.032 ± 0.61
EKGKLCKG	-0.101 ± 0.84
EGICNYSSKYCQGMVLIGSS	-1.52 ± 1.5
SQCLMKGHCKT	0.286 ± 0.66
WIGGVKG	-0.427 ± 0.72
LMGSRAGSLTQLIESNTKER	-0.748 ± 1.1
WFVTFVWVSSVRTILP	0.361 ± 1
HLLNMNSDLRTHCYVVWT	-0.264 ± 0.25
YIPFGLIYHGKLG	-0.969 ± 2.1
VFLVIVRYWCFFYHPVDTAN	inactive
FVLSNIPVAYLANANNAFHF	0.677 ± 0.52
DVLLFL	-0.779 ± 1.3
KVGYLYEAIGGKDDL	-0.605 ± 1.1
SDMSPNTGFG	0.073 ± 0.8
RFVCLLIGVSQLPQLRCEYR	-1.17 ± 0.47
TLCYYLVWRR	0.076 ± 0.29
YYFKRNTCCAAVLKHPFPVS	0.019 ± 0.99
RVKVGSRCVSQFLSTLVQRS	-0.266 ± 1.4
ARIMFVPWSLNDLWLGRFSM	-0.263 ± 0.45

Substance	amyloid nucleation score
FSKFSAVVDDPVCWKRLIFL	-0.57 ± 0.53
SRLGLSSDY	0.092 ± 0.33
MVGRVARRVTMSVCSAVSGV	-0.237 ± 0.45
VRAELFLTLPKGTQADALAV	-0.166 ± 0.67
ILYFLPNFHIMLSLI	inactive
LFLNTNSRKYTKMDTILILS	-0.359 ± 0.4
EHLISYATYEVLVSTWNSFE	inactive
EDMPFMTLKVIVFVTLMHLR	2.02 ± 0.62
SNSLLQGVTIWPNYPLCGNL	0.464 ± 0.53
PVLWASMVN	-0.243 ± 0.49
IIIACFVSCNELVGVSVIKT	0.037 ± 0.25
PGMKISSFCYTTMNHYNKSF	-0.375 ± 1.2
PEARWWERMDKGCMKVFHFK	0.945 ± 0.44
AKLAPCNSLVIDTY	1.89 ± 0.4
YEFMWRVNTLWRENLFYSGR	0.156 ± 0.59
CFYMVSFEFR	1.12 ± 0.34
ALCVDGDAVVTWDTILNEHF	-0.361 ± 0.97
TNKGFQYSGLVYCCWVRYLF	inactive
YRLKRINCGHVGHYMEDIRR	-0.099 ± 0.29
CQIFGNFWWKCIVGCRQIRF	inactive
SFSIGSFSAPLVAERFCCYT	0.163 ± 0.48
NWICKRVIYEYFSTQIYSSG	-0.133 ± 0.55
SVTRHALSNRSNGKIADCC	-0.306 ± 0.56
RILVVNWVYPSTMNGVSQWS	2.63 ± 0.2
PINYVDRIRYVCMWCLFVAF	inactive

Substance	amyloid nucleation score
VNSIESCANFH	-0.198 ± 1.7
LQQMIRRLVLRFMAATAL	0.14 ± 0.37
YGLFWN	-1.37 ± 1.5
CARYNASDRGEASYLIEHCG	-0.224 ± 0.57
NMKRQRAHPMFS	-0.707 ± 0.45
ISVHIFKGLYRSKSVAWRNV	-0.069 ± 1.1
YRVLELFYFV	inactive
CILGNME	inactive
LQNIFLKACDWLGCWDVDVM	-0.149 ± 0.93
YNTDWPLHLTADVGVFY	-0.088 ± 1.1
NFIVVMCTIMNLCYKAQPNE	inactive
VSKGLEHRPHVWG	5.35 ± 0.064
VFPFPLGFDFKNHERKSVV	-1.24 ± 0.58
CWDFISCSGQVVNGWSKDSS	-0.008 ± 0.42
VNIKLLVVRAVFVILKDMGK	2.16 ± 0.12
LLALRPASNKWNAYQTLTEP	-0.462 ± 0.57
WVWLHDKASLNLL	0.007 ± 0.72
KLVLRGVFIIDFWSNARRAS	0 ± 0.29
FSSFESCCRRYSSM	0.576 ± 0.93
QQYSVDSRCTTVRYGLYMDM	0.662 ± 1.1
SDNIYVMAWCSCNAARSIVF	0.616 ± 0.18
YRHSDANKHLGGAIQF	-0.519 ± 0.53
QCTVGASMD	0.169 ± 0.34
NVKLFFNIFVGKSKIHTTPW	6.308 ± 0.058
FYLHRAIWPSYHVSRLVRHR	-0.979 ± 2.7

Substance	amyloid nucleation score
VTPGRLQRLVM	-1.39 ± 0.58
SLDGNFTKALLLKIR	1.08 ± 0.35
PRTYMIRNWKSTNNSLASPK	-1.09 ± 1.5
EMWRYRRVGIPRLA	0.358 ± 0.92
GLILNNLSWAHWPPGGSMWL	2.72 ± 0.17
RIENDGLEMLGIINQQSCGS	4.01 ± 0.11
IGDRKMSY	0.145 ± 0.71
TWDSPVPG	0.208 ± 0.29
HTQYSSRYGFMCSRWIVSGV	0.684 ± 0.7
VGNRSFNIFGTMCKMLQWTE	-0.715 ± 1.1
PETFLPTSRVPEMGKLDTLS	0.456 ± 0.22
YMPPNGKCSKVCLLRGGDYM	0.719 ± 0.37
RCLRTALCISMSGWCSYSNW	1.27 ± 0.15
LCGGWLMGAGRFDGR	0.862 ± 0.54
FKNLCRAVS	0.059 ± 0.53
LDRTVWH	0.757 ± 0.34
IHHKD	-0.616 ± 0.24
NVAGMSPQSWVVDTSSR	1.34 ± 0.4
HWWVGKRLLLHPWVA	0.224 ± 0.31
WRSNI	-0.151 ± 0.49
AYNIVDRSYLGSCKPESFVG	0.469 ± 0.44
IDCGSFSYKQSMQLMCKSAQ	-0.19 ± 0.28
AVGSDWDVYWVPRRMRMMCS	-1.84 ± 2.7
TRMRSSKSSVA	0.532 ± 0.42
TPSLLVAVRILAAVMPSWET	-0.746 ± 0.43

Substance	amyloid nucleation score
GLSAEYFHFPVKRAVSMTLV	-0.049 ± 0.6
IVVFQ	-0.887 ± 1.8
GELLKMNVQIRYMGIWVNIL	3.46 ± 0.18
CFDNIGGCFNPHDY	-0.184 ± 0.43
SLYGYCLYARMCTASSKKLI	1.09 ± 0.28
LGFVRLGGSCHITIDSGACV	-0.386 ± 1
SWMKSLLFVFGLTCQMRECV	-0.544 ± 0.61
DTPRCRGVS	-0.197 ± 1.2
LLVLMYNCFAIYKNWIF	0.209 ± 1.2
NVRLHVVYVSPSYACFIWSW	0.343 ± 1.4
GVVGNTHQVPNRGRRSRFLL	-1.54 ± 1.7
RPSWFLTADDRVWFSSTGRG	0.053 ± 1.4
NMDGSVSCVCNILSFDYGGS	8.289 ± 0.077
VDPGDVVFLLRPRSEHWGVG	2.12 ± 0.18
NNMLAWWVSLTSSQT	0.512 ± 0.39
CPYRYYHTNLFMVIFLYRGM	-0.349 ± 0.47
NYIEPQG	0.296 ± 0.97
PFLNVEHFVMVDRFIVPDI	0.559 ± 0.79
IYMYIVNRRVTGSFRF	-0.136 ± 0.23
WNYTLGRCRTLGYAVAVLDI	-0.389 ± 1
FVKSKGWVCAGFLYIASL	0.53 ± 0.75
GNCPNT	0.367 ± 0.75
GKVFVCSIVYSIRMSITSRI	inactive
IACPYRHNGCNTRLRNINAV	-0.316 ± 0.42
WDYSRLLFAYNKIVTERNNG	-0.356 ± 0.29

Substance	amyloid nucleation score
VVKLRHYAEKICGSETELG	0.003 ± 0.51
FSLDSRITANLTKWEEMLVQ	-0.779 ± 0.41
QRWLWKRNLDCQRDTSL	0.514 ± 0.75
IVLDT	0.227 ± 0.29
EGMFFRGSLSK	3.31 ± 0.16
YMAFYPCWVHHKMIEKLCRC	-0.076 ± 0.71
MNQLTFRTNRPPSTASVFAR	1.01 ± 0.61
VSLVMWVYCGDDWLSFAIRA	-0.211 ± 0.38
RYCNKTFSTLSPVHLF	1.11 ± 0.97
VYAQMALLR	-0.164 ± 0.62
NYGFAIPFA	0.323 ± 0.31
CSKVVSSVLVQL	-0.322 ± 0.45
STTVSIYWCRWGGSSLHDV	0.141 ± 1.4
IYVRGRMRVMGARH	-1.26 ± 1.5
LLGYPSRLRPRYDFLPPGGM	0.014 ± 0.99
HSWCMSSSSIKFVCLENDLL	6.804 ± 0.061
AVRVTLKL	1.31 ± 0.2
PLRSRSGVSL	1.09 ± 0.62
STFCTSAISMSIGSIIVGLS	0.043 ± 0.62
NFIRKPFGFIY	-0.282 ± 1.7
RQIVEELTSGIVGSLEV	-0.48 ± 0.57
GQIDGCGTRVNT	2.17 ± 0.14
VKRKGAKISWQGAILRASVV	-0.963 ± 0.7
TCRFIGEYLRIRYT	0.367 ± 0.58
QRYKFLCLRRVENFGGYMSA	2.54 ± 0.24

Substance	amyloid nucleation score
RNMKPIYFLRPTISVNRSNR	0.594 ± 0.85
TRMCLRAKSMWVVDSN	0.068 ± 0.48
FHYYMSFSGDGI	0.724 ± 0.39
LRYDVPRWLGFSEWHF	-0.833 ± 1
SWRFDCYDRTWYNMYLEHLS	0.232 ± 0.23
MRGYPENKLSRSCQCRMRRY	-0.213 ± 0.74
TPNMCGWLVLTSM	-0.448 ± 0.62
SITFRRSYTNM	0.411 ± 0.67
TVTAVY	inactive
EQTCVVGPQE	0.397 ± 1
SINRRALRLGHHSSGVMAGL	-0.547 ± 1.3
RGNLAGLVLMNRHGCV	0.078 ± 0.4
LSWSILDGFGGMRCCNINAL	7.155 ± 0.058
RWWSWCSFTSSIFYCYLLCA	2.2 ± 0.13
MIMDVVKGFVFRSSINSKRY	3.27 ± 0.088
MCFSVG	-0.148 ± 0.4
ILYTCSSQSASFTGLWTSGL	2.03 ± 0.16
LATAEASRNYVGYFGWSFMN	0.098 ± 1.1
LGHAKRGDWSWLKFSCDSGE	-0.167 ± 0.48
QDGPIIFWDMVYFSFYFKH	-0.925 ± 1.2
NLMNWRLYDLTGLAAWDQYS	-0.841 ± 0.98
SVKGLYLIDVLLSYGLTFGM	-0.608 ± 0.53
WSFLANFNWMN	0.157 ± 1.4
